According to US11306156:

How the values were obtained:
[1] = biological target: D3H44 Fab heavy chain L143E_K145T, C-terminal ABD2-His6 tag; test: LCCA: heavy chain co-expressed with two light chains, SPR detection of light chain tags; L1:L2 DNA 1:3, normalized to 1:1; competing light chain m18
[2] = biological target: D3H44 Fab heavy chain L143R, C-terminal ABD2-His6 tag; test: as above
[3] = biological target: D3H44 Fab heavy chain L143E_K145T_Q179E, ABD2-His6 tagged; test: LCCA, SPR of light chain tags; L1:L2 DNA 1:3 normalized to 1:1; competing light chain m24
[4] = biological target: D3H44 Fab heavy chain S186K, ABD2-His6 tagged; test: as above
[5] = biological target: D3H44 Fab heavy chain Q179K, ABD2-His6 tagged; test: LCCA, SPR of light chain tags; L1:L2 DNA 1:9 normalized to 1:1; competing light chain m22
[6] = biological target: D3H44 Fab heavy chain L143E_K145T_Q179E, ABD2-His6 tagged; test: as above
[7] = biological target: D3H44 Fab heavy chain Q179K, ABD2-His6 tagged; test: LCCA, SPR of light chain tags; L1:L2 DNA 1:3 normalized to 1:1; competing light chain m17
[8] = biological target: D3H44 Fab heavy chain L143E_K145T_Q179E, ABD2-His6 tagged; test: as above
[9] = biological target: D3H44 Fab heavy chain S186R, ABD2-His6 tagged; test: as above
[10] = biological target: D3H44 Fab heavy chain S186K, ABD2-His6 tagged; test: as above
[11] = biological target: D3H44 Fab heavy chain Q179R, ABD2-His6 tagged; test: as above
[12] = biological target: D3H44 Fab heavy chain L143E_K145T_Q179E, ABD2-His6 tagged; test: LCCA, SPR of light chain tags; L1:L2 DNA 1:9 normalized to 1:1; competing light chain m24
[13] = biological target: D3H44 Fab heavy chain S186K, ABD2-His6 tagged; test: as above
[14] = biological target: D3H44 Fab heavy chain L143R, ABD2-His6 tagged; test: LCCA, SPR of light chain tags; L1:L2 DNA 1:9 normalized to 1:1; competing light chain m20
[15] = biological target: D3H44 Fab heavy chain L143E_K145T_Q179E, ABD2-His6 tagged; test: as above
[16] = biological target: D3H44 Fab heavy chain Q179K, ABD2-His6 tagged; test: LCCA, SPR of light chain tags; L1:L2 DNA 1:9 normalized to 1:1; competing light chain m17
[17] = biological target: D3H44 Fab heavy chain L143E_K145T_Q179E, ABD2-His6 tagged; test: as above
[18] = biological target: D3H44 Fab heavy chain S186R, ABD2-His6 tagged; test: as above
[19] = biological target: D3H44 Fab heavy chain S186K, ABD2-His6 tagged; test: as above
[20] = biological target: D3H44 Fab heavy chain Q179R, ABD2-His6 tagged; test: as above
[21] = biological target: D3H44 Fab heavy chain L143R, ABD2-His6 tagged; test: LCCA, SPR of light chain tags; L1:L2 DNA 1:3 normalized to 1:1; competing light chain m20
[22] = biological target: D3H44 Fab heavy chain L143E_K145T_Q179E, ABD2-His6 tagged; test: as above
[23] = biological target: D3H44 Fab heavy chain L143E_K145T_Q179E, ABD2-His6 tagged; test: LCCA, SPR of light chain tags; L1:L2 DNA 1:9 normalized to 1:1; competing light chain m21
[24] = biological target: D3H44 Fab heavy chain S186K, ABD2-His6 tagged; test: as above
[25] = biological target: D3H44 Fab heavy chain Q179R, ABD2-His6 tagged; test: as above
[26] = biological target: D3H44 Fab heavy chain L143E_K145T_Q179E, ABD2-His6 tagged; test: LCCA, SPR of light chain tags; L1:L2 DNA 1:3 normalized to 1:1; competing light chain m21
[27] = biological target: D3H44 Fab heavy chain S186K, ABD2-His6 tagged; test: as above
[28] = biological target: D3H44 Fab heavy chain Q179R, ABD2-His6 tagged; test: as above
[29] = biological target: D3H44 Fab heavy chain L143E_K145T_Q179E, ABD2-His6 tagged; test: LCCA, SPR of light chain tags; L1:L2 DNA 1:3 normalized to 1:1; competing light chain m19
[30] = biological target: D3H44 Fab heavy chain S186R, ABD2-His6 tagged; test: as above
[31] = biological target: D3H44 Fab heavy chain Q179K, ABD2-His6 tagged; test: LCCA, SPR of light chain tags; L1:L2 DNA 1:3 normalized to 1:1; competing light chain m22
[32] = biological target: D3H44 Fab heavy chain L143E_K145T_Q179E, ABD2-His6 tagged; test: as above
[33] = biological target: D3H44 Fab heavy chain Q179R, ABD2-His6 tagged; test: as above
[34] = biological target: tissue factor (TF) antigen (UniProt P13726); test: SPR; log change of median KD against wild-type D3H44 Fab
[35] = biological target: tissue factor (TF) antigen (UniProt P13726); test: SPR, Fab captured by anti-penta-His, TF injected, 1:1 fit; estimated (*) from a Fab that differs only in the L chain tag
[36] = biological target: tissue factor (TF) antigen (UniProt P13726); test: SPR, Fab captured by anti-penta-His, TF injected, 1:1 fit
[37] = biological target: tissue factor (TF) antigen (UniProt P13726); test: SPR; log change of median KD against wild-type D3H44 Fab; estimated (*) from a Fab that differs only in the L chain tag
[38] = biological target: D3H44 Fab heavy chain S186K, C-terminal ABD2-His6 tag; test: LCCA: heavy chain co-expressed with two light chains, SPR detection of light chain tags; L1:L2 DNA 1:9, normalized to 1:1; competing light chain m11
[39] = biological target: D3H44 Fab heavy chain L143E_K145T, C-terminal ABD2-His6 tag; test: as above
[40] = biological target: D3H44 Fab heavy chain S186K, C-terminal ABD2-His6 tag; test: LCCA: heavy chain co-expressed with two light chains, SPR detection of light chain tags; L1:L2 DNA 1:3, normalized to 1:1; competing light chain m11
[41] = biological target: D3H44 Fab heavy chain L143E_K145T, C-terminal ABD2-His6 tag; test: as above
[42] = biological target: D3H44 Fab heavy chain L143R, C-terminal ABD2-His6 tag; test: LCCA: heavy chain co-expressed with two light chains, SPR detection of light chain tags; L1:L2 DNA 1:9, normalized to 1:1; competing light chain m11
[43] = biological target: D3H44 Fab heavy chain L143E_K145T_S188L, C-terminal ABD2-His6 tag; test: as above
[44] = biological target: D3H44 Fab heavy chain L143R, C-terminal ABD2-His6 tag; test: LCCA: heavy chain co-expressed with two light chains, SPR detection of light chain tags; L1:L2 DNA 1:3, normalized to 1:1; competing light chain m11
[45] = biological target: D3H44 Fab heavy chain L143E_K145T_S188L, C-terminal ABD2-His6 tag; test: as above
[46] = biological target: D3H44 Fab heavy chain L143E_K145T, C-terminal ABD2-His6 tag; test: LCCA: heavy chain co-expressed with two light chains, SPR detection of light chain tags; L1:L2 DNA 1:3, normalized to 1:1; competing light chain m19
[47] = biological target: D3H44 Fab heavy chain L143R, C-terminal ABD2-His6 tag; test: as above

“D3H44 light chain Q124E_V133E_Q160M, N-terminal HA or FLAG tag” gave an H1L1:H1L2 normalized median ratio [1] of 15% and an H2L2:H2L1 normalized median ratio [2] of 88%.
For “D3H44 light chain Q124R_T178R, HA or FLAG tagged”, the H1L1:H1L2 normalized median ratio [3] was 91%, the H1L1:H1L2 normalized median scalar value ln(r1/f1) [3] was 2.27 and the H2L2:H2L1 normalized median ratio [4] was 6%. For the same substance, the H2L2:H2L1 normalized median ratio [5] was 11%, the H1L1:H1L2 normalized median ratio [6] was 85% and the H1L1:H1L2 normalized median scalar value ln(r1/f1) [6] was 1.77. For the same substance, the H2L2:H2L1 normalized median ratio [7] was 5%, the H1L1:H1L2 normalized median ratio [8] was 91% and the H1L1:H1L2 normalized median scalar value ln(r1/f1) [8] was 2.29. It also gave an H2L2:H2L1 normalized median ratio [9] of 6%, an H2L2:H2L1 normalized median ratio [10] of 2% and an H2L2:H2L1 normalized median ratio [11] of 5%. The H1L1:H1L2 normalized median ratio [12] was 78%, the H1L1:H1L2 normalized median scalar value ln(r1/f1) [12] was 1.29 and the H2L2:H2L1 normalized median ratio [13] was 6%. It also gave an H2L2:H2L1 normalized median ratio [14] of 11%, an H1L1:H1L2 normalized median ratio [15] of 92% and an H1L1:H1L2 normalized median scalar value ln(r1/f1) [15] of 2.45. For the same substance, the H2L2:H2L1 normalized median ratio [16] was 16%, the H1L1:H1L2 normalized median ratio [17] was 90% and the H1L1:H1L2 normalized median scalar value ln(r1/f1) [17] was 2.18. For the same substance, the H2L2:H2L1 normalized median ratio [18] was 13%, the H2L2:H2L1 normalized median ratio [19] was 10% and the H2L2:H2L1 normalized median ratio [20] was 14%. The H2L2:H2L1 normalized median ratio [21] was 5%, the H1L1:H1L2 normalized median ratio [22] was 93% and the H1L1:H1L2 normalized median scalar value ln(r1/f1) [22] was 2.62. The H1L1:H1L2 normalized median ratio [23] was 92%, the H1L1:H1L2 normalized median scalar value ln(r1/f1) [23] was 2.45 and the H2L2:H2L1 normalized median ratio [24] was 11%. For the same substance, the H2L2:H2L1 normalized median ratio [25] was 10%, the H1L1:H1L2 normalized median ratio [26] was 92% and the H1L1:H1L2 normalized median scalar value ln(r1/f1) [26] was 2.46. For the same substance, the H2L2:H2L1 normalized median ratio [27] was 5%, the H2L2:H2L1 normalized median ratio [28] was 6% and the H1L1:H1L2 normalized median ratio [29] was 85%. For the same substance, the H1L1:H1L2 normalized median scalar value ln(r1/f1) [29] was 1.75, the H2L2:H2L1 normalized median ratio [30] was 4% and the H2L2:H2L1 normalized median ratio [31] was 4%. It also gave an H1L1:H1L2 normalized median ratio [32] of 86%, an H1L1:H1L2 normalized median scalar value ln(r1/f1) [32] of 1.83 and an H2L2:H2L1 normalized median ratio [33] of 3%.
Work on “H1L1 Fab heterodimer of LCCA sets 9589, 9587, 9588 and 9585 (D3H44 Fab, H1 L143E_K145T, L1 Q124R)” yielded a Change in median values of KD of h1l1 Fab heterodimer compared to wild type (-(log(KD design)-log(KD wt))) [34] of -0.25 log units, a Kd [35] of 280 pM and a Kd [36] of 280 pM. For the same substance, the Change in median values of KD of h1l1 Fab heterodimer compared to wild type (-(log(KD design)-log(KD wt))) [37] was -0.25 log units.
Work on “D3H44 light chain Q124E_T178E_T180E, N-terminal HA or FLAG tag” yielded an H2L2:H2L1 normalized median ratio [38] of 90%, an H1L1:H1L2 normalized median ratio [39] of 19% and an H2L2:H2L1 normalized median ratio [40] of 91%. For the same substance, the H1L1:H1L2 normalized median ratio [41] was 18%.
In the case of “D3H44 light chain Q124E_V133E_S176L, N-terminal HA or FLAG tag”, the H2L2:H2L1 normalized median ratio [42] is reported as 79%, the H1L1:H1L2 normalized median ratio [43] is reported as 14% and the H2L2:H2L1 normalized median ratio [44] is reported as 94%. It also gave an H1L1:H1L2 normalized median ratio [45] of 26%.
Substance “D3H44 light chain Q124R, N-terminal HA or FLAG tag” has an H1L1:H1L2 normalized median ratio [46] of 85%, an H1L1:H1L2 normalized median scalar value ln(r1/f1) [46] of 1.77 and an H2L2:H2L1 normalized median ratio [47] of 12%.
